{"source": "the DeepSol protein solubility set", "data": [{"assay": "soluble on expression in E. coli; label from the status in PepcDB or PDB records", "values": [{"sequence": "MRITFIGGGNMAGAIIGGLARQGGHRIHVVEHQQDKLDQLAAGFGCSGSQALPERFAADEVVVLAVKPQQLRELCLALAPVLNGALVVSIAAGIRLDALARWLGSRRIVRVMPNTPAMVGKGVSGLYADAAVSAADRDAAETVMRAAGLTVWLADEAGIDDITCVSGSGPAYVFYFIESMIEAAAKAGFGEDKARELVLATFDGAVELARQSPLPVAELRRNVMSKGGTTERAIARFEAEGVKAAIVAGAMDCRDRSIEMGRELSQELEHHHHHH", "soluble on expression in E. coli": "soluble"}, {"sequence": "MPMFAWKGKRDKSMKVSVVIPVHNEASTLSKVLAEVKKLEPYEIIIVDNGSTDGTKEIALQHHCRVIYYNHSLGNDVGRAIGAREAKGEIVLFLDGDIVMKSEELYPFIKGIQQGHQIVLNNLTWSVYLKVRPHYTTVGKYMLNRYLNKKEFVVGSLIAIPHAISREVIEKLGWWNLADPALFQAMAMSRGVDISDMASVDVIYTNKVRPVHTGTSPDSPYPKATSRIMGDHLRALQYITETYGKRGGFSEGNRDREFIGKYKPVVLKKEKAKYSAIIPVSEEKTTIRSVIQEVKKAGVDEIIIVANGADIETIKQVNLENVIVVEVTKTLGNNVARAIGAMHATAEICLFVDGDYAIPAKKLVPFLRAIEDGSDMALNDLQCLLDIFHPADPISMGKYFVNLVAKRPDLWNNSLTAVPHAIRKKVIEKIGYDSLIIPPLAQMKAILEGFSITTVEFVDVIKTNRVRPEQHEFVNGRISAFDRIFGDQLEAIAYLLQHTDERGGFTDGDRDREIIQQLRREEENTNEY", "soluble on expression in E. coli": "not soluble"}, {"sequence": "MGNIVKPFKQQPSSFAYQPLTVPLIPEVEAQSENLRVFSFKEWMKATKKSRQDRVVIRDDHYIRSFYKGYIDNTTFAPSRTKTGTPVSVVEYLHGSSQALQEWVDIFGVILLELLVGSQDRSTALKNQSSDWTGSFLPDNYKIGEIIDPRIGSDYPVDAATKIGLGPNVRCPYIGHRDMDKC", "soluble on expression in E. coli": "soluble"}, {"sequence": "MSTEIKTLKPQAVWEYFYDLTQIPRPTGQMDEVTKYVFDFGKRLGLETEQDEVGNVIIRKPATPGMENKPIVTLQSHLDMVPQKNSDIDHDFTKDPIDAYIDGEWVKARG", "soluble on expression in E. coli": "not soluble"}, {"sequence": "MSNIVYLTVTGEQQGSISAGCGTSESTGNRWQSGHEDEIFTFSLLNNINNTGLGSQFHGITFCKLIDKSTPLFINSINNNEQLFMGFDFYRINRFGRLEKYYYIQLRGAFLSAIHHQIIENQLDTETITISYEFILCQHLIANTEFSYLALPENYNRLFLPNSKNQTNNRFKTLNSKAIGRLLAAGGVYNGNIEGFRDTAEKLGGDAIKGYDQILNEKTAGIAIATASILLTKRSNVDTYTEINSYLGKLRGQQKLLDGIDIIEIIYIKRPSKDLANLRKEFNKTVRKNFLIKLAKTSEASGRFNAEDLLRMRKGNVPLNYNVHHKLSLDDGGTNDFENLVLIENEPYHKVFTNMQSRIAKGILVGESKITPWAIPSGSIYPPMKNIMDHTK", "soluble on expression in E. coli": "not soluble"}, {"sequence": "MAKTLDSPGVLVVDFGGQYAHLIARRIRELGVYSEIVPATSLDALGEALPRAAGVVLSGGPGSVWGSRHDEAAAMVLQLGKPVLGICYGHQLLAKVLGGEVGRSPLPEFGPTEVEVLDYGILLNGLPSRFKVWMSHYDAVLRPPGEAKVLARTPGSPVAAMELWGRVFGVQWHPEVRHTQYGREVLDNWLSLVGAPRTWRPGDMVSELVESVKKEVGDALAVAAVSGGVDSTVAALIAKKAIGSRLYPVFIDHGLHPEGEVERVVKLLSRLGLEPVMVDAGEEFLAALEGVGDPEEKRRVVGRVYAEVLERAARDIGAEYLVQGTIYPDVIESGARPGADTIKTHHNVGGLPKDMRLKLVEPLRYFYKDEVRLLAEKLGVPRELIWKQPVPGPGLAVRVEGPITREKLRIVRRADAIVREEVEAAGLGGKLWQYFAVLTASMATGVRGDSRSYGYVVAVRAVESVDAMTAKPAELPWWLLERIARRITSEIPEVVRVVYDITSKPPSTIEWE", "soluble on expression in E. coli": "soluble"}, {"sequence": "MSGALDGVRVLDLSRVLAGPYATMILGDLGADVIKVEAPGGSDDTRFWGPPFQNGMSAYYTAVNRNKRSITVNLKSAEGQETIRRLAETADVLIHNFKTGTMEQWELGYESLSRLNPRLIYCSITGFGETGPLAPLAGYDYIIQAMSGWMSINGTADTGPLKVGVAVTDVFTGLYAAIAIEAALLAREKTGRGQKIDLALFDCAVSALVNVAANYLLSGDVPKPLGNEHPNIVPYSTYMASDGPIVIAVGNDRQFQALCSLLSDHSLGTDPRFQTNPGRVAHREELNRRLNEEIKRRTRAEWQRLLAEKGIPCGPVQTLDELFRHPQTAAREMTVTVHHPIVGPLTLVASPLKLSDTAVSYRLPPPLAGEHNGEVEAGWQGKPAAENGPHDKNQ", "soluble on expression in E. coli": "not soluble"}, {"sequence": "MALMTNKTRALLIGGHGKVALLATPMLIDASVQVTSMYRNPDHRSEIEALGATTLERDVTTLSVEDWADLLKDFDVVVWSAGNGGKNGADATYAIDRDAAIASIDGAASLGEKAPRYIMVSYIGSSTHTIDPSASFYPYAESKKAADEHLSSTNLDYLILAPAALTLDEVNGVEVIADTNEAAAGRTTSRVLVAEVITEFVVRDFPQTRVLPFVDGESPLEHHHHHH", "soluble on expression in E. coli": "soluble"}, {"sequence": "MKYILFATAGHVDHGKTTLIKTLTGIDTDRLPEEKKRGLSIDIGFAYIDFPDINTRLEIIDVPGHERFIKNAIAGICSASGLILVVDPNEGIMPQTIEHLRVAKSFGIKHGIAVLTKMDKVDEELAHIAEEELIAFLEKEEMNMEIVKVSAVTGQGIEDLKNSIKKLLESINNLNKHKPLRIFVDSAFVVKGYGTVLRGSCFEGEVKEGDKVVVEPIGVISRVRKMQNHGVFVKKAVAGERIALNLPEVDAKKVKRGFLILKPESYEKSNVLIVKTEIDLKPGKIYQVFFGMRETVGKISVIDKGIYLVRLKENAIVRRGDKLVVLDSSGNFLGGAEVLHPKVRVTKKAFIKKNIKDLLENFECYLLKERGPIGLKLEFFKRITGVSPKVANLKPESIEIRGVYYLKGFIENLKLKIKKFLDTELQNAFGVDKEKVKSMFSLNEELLKYILDELKTYKIVNELIIDERKSDLEKNEDFQKLMSILKGGIKEEREIILEGIPKEILTLSIKRKYAHRIGEYLIISDELLKKYINELKELGKTFNVQQAKNKLGLTRKYLIPLLEYLDYLGLTVREGNERRWKR", "soluble on expression in E. coli": "soluble"}, {"sequence": "MFHCKGLYMSDQNDKLKNLKTSSMDRRLSIAKASLLAGTRWATASATSMFSSEAEKEKKRKKAMTEQANYLVSEIGKLKGSIVKIGQMMALYGEHFLPEEITQALNTLNNQTVALAWPAIKAHLQEQLGSKLDDLIIDHEPIGTASLAQVHRATRKSDGLELVLKIQYPGVAEAIDSDMSLFKNMLKLTRMVPQTREFDQWFDEVREMMHREVSYDIEAATTRRFAERLKTDPRYAVPQIIDAYCTTKILCMTFERGVPINSPVMLSLPQERRNKLGEASLEIAVREIFEWGEMQTDPNFGNYLVRLGNGTDIQDKIVLLDFGAIRQFDEHLLSVARNLIRAGYNHSNEEMVRAMTGYSFFDSIPESIKPDMAKVFLLATEAFSCPENNPDMPTGLMDEDNRYDWKKSQLHSRVMQQASKSMASRYFSVPPKEFMFISRKFIGAYTFMTVIEAKTNVRRMISHFVKLEHHHHHH", "soluble on expression in E. coli": "not soluble"}, {"sequence": "DEAMVKIEKQEIVEHLSENSLLVQLKYAGASTDEPLLNELYKHYQVMANILYGNIEILDGTPVGELVVVLSGEKAALAGAQEAIRQAGVQLKVLKGVQ", "soluble on expression in E. coli": "not soluble"}, {"sequence": "MPTPTTLSEWQLLAVLSKANLVQYYDVFIAQGGDDINQIMACEEREFLEIMNLVGMLPKPLHVRRMQRALAEYSQDQTAFNLAALQQIGPPPPLNYTPAGTDPMALLLPGIAAATSPKFPSLRFLSQLSSVAEKVSTPSEAADTSSSSPSLNLNTTSSNSVPLAFKFSTPLLESLASDQQSSSTSSVRSVLPSTSSNTSHPELPAGILPATTTNVSAAVPPPSSRATANVFSGNSIGLNFSGAASVTRHLVVPPSSTSIQQPSTSFGRSSSITGQEKEGSSSPFLGVGYSQPYGNDFVSLGDFDPNNPSLTENPTLSTAQISRLAECALAASKNLPPLPPRLVQNKKRVSKEVIELLKCSPATPSMIHAFRKYSAIYGRFDTKRKPHKVLTLHETTVNEAAAQLCLLVPSLLTRRDELFPLARQIVKDAGYNYAKSRKRPCDPADLHSPISSPGNSPPPQESEFDEQPSSSSGAFKEEERPPIPPEAWAAIIEKMKGELPES", "soluble on expression in E. coli": "not soluble"}, {"sequence": "MRTNVRLLAYRLLRKYEKEKFISREDVDSVLSFLDDRDRRFFKELVWGVVRKEELLDWYINQLLKKKDIPPAVRVALRMGAYQLLFMNSVPDYAAVSETVKLVKNENFKKLVNAVLRRLRTVPEPKELHLVYSHPEWIVNYWRSFLPEEAVLRIMKWNQEPLPVMLRVNSLAATKEEVIKILAEEGTEAVPGKHAPFSLIVRKLGVPMNDSRVINDGLASVQGESSQLVPFFMELRPGLRVLDTCAAPGGKTTAIAELMKDQGKILAVDISREKIQLVEKHAKRLKLSSIETKIADAERLTEYVQDTFDRVLVDAPCTSLGTARNHPEVLRRVNKEDFEKFSEIQLRMVQQAWQLLEKGGILLYSTCTVTKEENTEVVKRFVYEQKDVEVIDIRDKMKEFEVEGIWDGYGFLMLPDETITPFYISVLRKMG", "soluble on expression in E. coli": "soluble"}, {"sequence": "MDSSEVVKVKQASIPAPGSILSQPNTEQSPAIVLPFQFEATTFGTAETAAQVSLQTADPITKLTAPYRHAQIVECKAILTPTDLAVSNPLTVYLAWVPANSPATPTQILRVYGGQSFVLGGAISAAKTIEVPLNLDSVNRMLKDSVTYTDTPKLLAYSRAPTNPSKIPTASIQISGRIRLSKPMLIAN", "soluble on expression in E. coli": "soluble"}, {"sequence": "MGSDKIHHHHHHMMSTIYRHLSTARPALTKYATNAAVKSTTASSEASTLGALQYALSLDEPSHSWTKSQLKEIYHTPLLELTHAAQLQHRKWHDPTKVQLCTLMNIKSGGCSEDCKYCAQSSRNDTGLKAEKMVKVDEVIKEAEEAKRNGSTRFCLGAAWRDMKGRKSAMKRIQEMVTKVNDMGLETCVTLGMVDQDQAKQLKDAGLTAYNHNIDTSREHYSKVITTRTYDDRLQTIKNVQESGIKACTGGILGLGESEDDHIGFIYTLSNMSPHPESLPINRLVAIKGTPMAEELADPKSKKLQFDEILRTIATARIVMPKAIIRLAAGRYTMKETEQFVCFMAGCNSIFTGKKMLTTMCNGWDEDKAMLAKWGLQPMEAFKYDRS", "soluble on expression in E. coli": "not soluble"}, {"sequence": "MTYEIVIAGFGGQGVLSMGKILAYSGLMEDKEVSWMPSYGPEQRGGTSNVTVIVSDEQVSSPVLNEYDIVIVLNQPSLDKFEARVKKGGILVYDPDSIVLKNKRDDIQIYEVDATQESLRMGNQKAFNMIVLGGVLKVAPMVKIESVIKGLKKTLPERHHKLIPMNEQAIQRGMEIIKQIH", "soluble on expression in E. coli": "not soluble"}, {"sequence": "MGSDKIHHHHHHMETFHLTRNEMATLLLSLRGWNTKKPLGILQEAWAKSHKKDIESGQSVTAFITTALSPIFEKLIKIDDTDVGFSLNEIVALGNQIENTSFSVTAMQNWVKRDIKEMIGSPQKGKKYSIEQAALLFIVEDLKTALDFESIRKLLRLIVNDPADRSDDLINPVHLYGAYSSLFEELNQGNCLQLNATDTIHTIENIVKERADKIASKFDQVNNEQREAIRNAIIIATLSVHTAYVQMLAKRYVTATLFLQNLDVKP", "soluble on expression in E. coli": "not soluble"}, {"sequence": "MVMIMRICIQPVGDVNDEILKFLKKKFGEVFGMCEILPKIDIPIYAYNFSRGQFNSTLILKSLPTVEDIVLGVTEVDIYADNLNFVFGEAELFGKRALISLARLRPEFYGLPPNKDVLKIRALKEAIHEIGHVLGLIHCENKRCVMSFSNSIIDVDLKDWRYCKKCLKKLQDRGIYISILEHHHHHH", "soluble on expression in E. coli": "not soluble"}, {"sequence": "MADKLDEIIDKVASGQRKKDTIEDTEEEGTRKRKIEQFEDIERPNELSGFKKQKIEENSEIHAEETEESVEAQMVMKKPSEEPELKRRKILIHMEPSITETNPMRIWTVADDLALLTAVAHVQCIRFIHNSLTFSRKFTFSDVEERYCQLMFDEEISKSAKVRLDAMPHRLKAQIEARTPFTRNEERTLMELAENQLKNARKERQDVENHTVLTILHFKKILDGNRQSFHKSRTPQVLSDHYRRIKGYRSEQGNNYNWQALEALTDGNTMDFDINAPLQAARSRYAAISRRPALSGILNRFKTSGSVPDNAIAMINGQFLQYAMTGKSVTMGRASLNEKIDIDLSKEGPATKVLEGRRQLFPVNKR", "soluble on expression in E. coli": "soluble"}]}]}
